These results are taken from publication PMC7842262.

The subject of the series is HIV-1 Rev (HIV-1). Briefly: EMSA. The following applies: scale: fold more Rev than RRE for 50% unbound RNA.

433-mer RcRE (K-RRE) gave a binding signal of 8.
